Experimental findings from the Human Domainome abundance scans (Beltran et al. 2025) are described below.

To fix the notation:
B1: E3 ubiquitin-protein ligase NEDD4-like, residues 539 to 589; numbered along this chain, Q96PU5 (parent)
chain: KTSLNPNDLGPLPPGWEERIHLDGRTFYIDHNSKITQWEDPRLQNPAITGP

± gives the uncertainty stated by the source.

Variants of B1 are the subject of this data set. Description: abundance fitness (aPCA) (normalised: wild type 0, dead -1); higher = more abundant; growth selection in yeast, the domain comes from the species named. Conditions: Homo sapiens.
D40Y: the abundance fitness was -0.53 ± 0.045.
Consider P6I, for which the abundance fitness was determined as 0.077 ± 0.099.
As for P6Q, the abundance fitness was -0.199 ± 0.1.
Regarding P6W, the abundance fitness is -0.176 ± 0.074.
Consider P6K, for which the abundance fitness is 0.146 ± 0.091.
As for S3I, the abundance fitness is -0.162 ± 0.11.
Consider S3P, for which the abundance fitness is -0.308 ± 0.038.
For S3L, the abundance fitness is -0.345 ± 0.061.
Regarding S3D, the abundance fitness is -0.085 ± 0.064.
With S3Q, the abundance fitness is -0.427 ± 0.07.
In the case of S3T it was -0.175 ± 0.041; in that of S3A, -0.412 ± 0.047; in that of S3C, -0.339 ± 0.1.
As for S3N, the abundance fitness worked out at 0.093 ± 0.065.
Consider S3W, for which the abundance fitness is -0.86 ± 0.086.
On to S3Y, for which the abundance fitness was -0.046 ± 0.081.
For the variant S3H, the abundance fitness is -0.223 ± 0.047.
Take W16L: the abundance fitness was -0.509 ± 0.043.
For W16C, the abundance fitness was -0.502 ± 0.086.
With W16G, the abundance fitness is -0.223 ± 0.053.
Next, W16R: -0.408 ± 0.042; W16Y: -0.41 ± 0.098.
Next, W16M: -0.46 ± 0.082.
As to W16T, the abundance fitness was -0.565 ± 0.075.
For L43E, the abundance fitness is -0.042 ± 0.073.
With L43A, the abundance fitness is 0.007 ± 0.071.
With L43G, the abundance fitness was -0.086 ± 0.05.
Regarding L43Q, the abundance fitness is -0.144 ± 0.091.
Consider N32D, for which the abundance fitness is -0.118 ± 0.094.
Consider N32V, for which the abundance fitness was -0.064 ± 0.05.
N32H: the abundance fitness is -0.286 ± 0.079.
N32K: the abundance fitness is -0.011 ± 0.053.
In the case of G15R, the abundance fitness was -0.498 ± 0.064.
G15H: the abundance fitness is -0.407 ± 0.18.
For G15D, the abundance fitness is -0.471 ± 0.086.
For the variant T26P, the abundance fitness is -0.051 ± 0.073.
Next, T26L: -0.136 ± 0.05; T26Q: -0.284 ± 0.056; T26R: -0.011 ± 0.045.
For R42M, the abundance fitness was -0.718 ± 0.06.
Regarding R42Y, the abundance fitness is -1.05 ± 0.067.
As for R42K, the abundance fitness is -0.352 ± 0.11.
With R42L, the abundance fitness is -0.787 ± 0.058.
Regarding R42S, the abundance fitness was -0.661 ± 0.053.
Turning to R42H, the abundance fitness is -0.67 ± 0.096.
For I35Y, the abundance fitness was -0.291 ± 0.091.
Regarding I35F, the abundance fitness was -0.16 ± 0.086.
With P13R, the abundance fitness was -0.698 ± 0.05.
As for P13L, the abundance fitness was -0.745 ± 0.056.
P13E: the abundance fitness is -0.506 ± 0.053.
As to P13T, the abundance fitness is -1 ± 0.12.
For the variant D8I, the abundance fitness is -0.189 ± 0.051.
As for D8P, the abundance fitness is -0.218 ± 0.057.
In the case of D8F it was -0.321 ± 0.092.
For D8C, the abundance fitness was found to be 0.033 ± 0.083.
As to D8W, the abundance fitness was -0.466 ± 0.053.
D8R: the abundance fitness was -0.034 ± 0.053.
Take D8H: the abundance fitness was -0.194 ± 0.069.
As to N45D, the abundance fitness was -0.213 ± 0.076.
For N45W, the abundance fitness is -0.331 ± 0.064.
Consider N45F, for which the abundance fitness is -0.634 ± 0.12.
With N45Q, the abundance fitness was -0.102 ± 0.063.
Consider P11T, for which the abundance fitness is -0.127 ± 0.074.
For P11L, the abundance fitness was -0.41 ± 0.063.
As to P11M, the abundance fitness is -0.232 ± 0.057.
Consider P11W, for which the abundance fitness was -0.613 ± 0.082.
As for G10R, the abundance fitness was -0.263 ± 0.056.
G10Y: the abundance fitness was -0.571 ± 0.12.
Take G10I: the abundance fitness was -0.508 ± 0.13.
As for G10Q, the abundance fitness was -0.276 ± 0.049.
Turning to W38L, the abundance fitness was -0.173 ± 0.041.
On to W38Q, for which the abundance fitness is -0.07 ± 0.041.
On to W38M, for which the abundance fitness is -0.127 ± 0.046.
In the case of W38A, the abundance fitness is -0.014 ± 0.044.
On to L22Y, for which the abundance fitness is 0.07 ± 0.1.
For L22T, the abundance fitness was determined as 0.141 ± 0.084.
Consider L22N, for which the abundance fitness is -0.247 ± 0.12.
Take L22P: the abundance fitness amounted to 0.246 ± 0.052.
In the case of L22R it was 0.052 ± 0.043.
In the case of L22I, the abundance fitness is -0.107 ± 0.087.
L12H: the abundance fitness was -0.863 ± 0.17.
As to L12F, the abundance fitness is -0.088 ± 0.071.
On to L12W, for which the abundance fitness was -0.72 ± 0.053.
Regarding L12C, the abundance fitness was -0.824 ± 0.12.
Take L12S: the abundance fitness was -0.695 ± 0.063.
In the case of L12V, the abundance fitness is -0.568 ± 0.048.
On to L12R, for which the abundance fitness is -0.864 ± 0.057.
On to L12P, for which the abundance fitness was -0.62 ± 0.12.
As for Q44N, the abundance fitness was -0.091 ± 0.046.
Consider Q44H, for which the abundance fitness was -0.155 ± 0.059.
Next, Q44C: -0.15 ± 0.08; D23G: -0.388 ± 0.056.
Next, D23A: -0.779 ± 0.079; D23E: -0.584 ± 0.085.
Take D23I: the abundance fitness is -0.725 ± 0.067.
In the case of D30A it was -0.539 ± 0.053; in that of D30H, 0.125 ± 0.092.
For the variant D30R, the abundance fitness is -0.553 ± 0.045.
Regarding D30I, the abundance fitness was -0.87 ± 0.082.
Turning to D30Y, the abundance fitness is -0.358 ± 0.087.
Next, E18F: -0.736 ± 0.14.
In the case of E18C it was -0.252 ± 0.053.
In the case of E18G it was -0.503 ± 0.06.
Turning to E18Y, the abundance fitness was -0.417 ± 0.12.
With E18T, the abundance fitness was -0.27 ± 0.049.
In the case of E18H, the abundance fitness was -0.68 ± 0.17.
P14D: the abundance fitness stood at 0.023 ± 0.084.
For P14A, the abundance fitness amounted to 0.008 ± 0.066.
For P14N, the abundance fitness is -0.355 ± 0.12.
As to P14H, the abundance fitness was -0.159 ± 0.067.
P14L: the abundance fitness is -0.204 ± 0.046.
Turning to Y28C, the abundance fitness is -0.902 ± 0.13.
On to Y28W, for which the abundance fitness is -0.008 ± 0.063.
For Y28G, the abundance fitness is -0.451 ± 0.043.
For the variant R25N, the abundance fitness was -0.164 ± 0.043.
In the case of R25I, the abundance fitness was -0.757 ± 0.043.
In the case of A47S, the abundance fitness is -0.04 ± 0.068.
In the case of A47R it was 0.004 ± 0.053.
In the case of A47V it was -0.042 ± 0.047; in that of A47C, -0.049 ± 0.074; in that of A47G, 0.01 ± 0.045.
Consider A47E, for which the abundance fitness is -0.002 ± 0.068.
Turning to A47K, the abundance fitness is -0.204 ± 0.097.
In the case of A47F, the abundance fitness is -0.204 ± 0.07.
E17I: the abundance fitness was -0.432 ± 0.11.
Turning to E17R, the abundance fitness is -0.746 ± 0.046.
In the case of E17D it was -0.606 ± 0.064.
Regarding E17T, the abundance fitness was -0.628 ± 0.069.
Take E17L: the abundance fitness was -0.856 ± 0.07.
Regarding E17Y, the abundance fitness is -0.986 ± 0.14.
Consider E17C, for which the abundance fitness was -0.457 ± 0.047.
Next, L4F: -0.003 ± 0.081; L4N: -0.295 ± 0.094; L4W: -0.283 ± 0.045.
